From US20260265360A1, “USE OF ANTI-FAM19A5 ANTAGONISTS FOR TREATING HEARING DISORDERS” (NEURACLE SCIENCE CO., LTD., priority 2023, published 2026)

Assays:
Assay type in all cases: binding
[1] = target: T1, FAM19A5 mutants M1 to M8 (Homo sapiens, UniProt Q7Z5A7); test: Epitope mapping ELISA with FAM19A5 mutants M1-M8
T1 construct: made in house; host or cells: phage display with helper phage
Description: (§1) To further characterize the binding epitopes of the anti-FAM19A5 antibodies disclosed in the present disclosure, the amino acid sequences for the different FAM19 family members (i.e., FAM19A1-5) were aligned. […] The amino acid sequences of these regions were replaced with the consensus sequence of the corresponding regions for the FAM19A1-4 proteins. See Table 13 (the mutated amino acid residues are bolded and underlined).
(§2) The mutant FAM19A5-expressing phages were prepared as follows. To prepare the media for phage culture, 55.6 ml of 2M Glucose (D-(+)-Glucose, Sigma), 5 mL of 1M MgCl2 (Magnesium chloride, Junsei) 1 mL of 34 mg/mL chloramphenicol (Sigma) were added to 2×YT media. Colonies obtained through mono-phage ELISA were selected and placed in 5 mL of prepared media (2×YT-GMC) to be cultured for 16 hours at 37° C. with shaking incubator (VS-8480, Vision). 100 μL of each culture was transferred to 10 mL 2×YT-GMC individually which were cultured at 37° C. in the incubator until detection value at O.D. 600 nm reached 0.5. Once detection value has reached 0.5 at O.D. 600 nm, 5 mL of each culture were obtained as samples to be infected. Following sample preparation, 50 μL of […] was added to individual samples then incubated at 37° C. without shaking for 30 minutes and with shaking for additional 30 minutes. Individual cultures were centrifuged for 15 minutes at 3,850 rpm using Micro centrifuge (Micro12, Hanil). The supernatants of centrifuged cultures were removed to be kept separate and replaced with 5 mL of 2×YT media containing 1 mL of IM IPTG (AG Scientific), 5 mL of 1M MgCl2.1 ml of 70 μg/μL kanamycin (Biopure) and 1 mL of Chloramphenicol. The resulting pellets were dispersed thoroughly in newly added media followed by incubation at 30° C. for 16 hours with stirring.

[2] = target: FAM19A5 antigen (Homo sapiens, UniProt Q7Z5A7); test: Cross-competition two-site sandwich ELISA; details: antibodies 1-65, P2-A03, P2-F11, 13B4, 2-13, 3-2; cross-competition = S/N ratio lower than 2
Description: The term “S/N” refers to the signal to noise ratio, which is measured as follows: [O.D. of 10 ng/ml antigen]/[O.D. of 0 ng/ml antigen].
Next, a two-site sandwich ELISA was used as described below to assess whether the different anti-FAM19A5 antibodies with similar binding epitopes cross-compete with each other.
First, the indicated anti-FAM19A5 antibodies were diluted in 1×PBS to a concentration of 10 μg/mL. The diluted anti-FAM19A5 antibodies (10 μg/mL in 1×PBS) (“capture antibody”) were used to coat the 96-well plates (100 μL/well) at 37° C. for approximately 1 hour. After the incubation, the plates were washed with the washing buffer (0.01% Tween-20/PBS; also called 0.01% PBST) for a total of five washes, blocked with the blocking solution (5% BSA/PBS; also called 5% PBSA) (250 μL/well) for one hour at 37° C., and then washed again. Next, 100 μg/mL of the FAM19A5 antigen (diluted in PBS containing 5% BSA, 0.01% Tween-20; also called 5% PBSAT; “diluent buffer) was added to each of the wells, and the 96-well plates were incubated for 2 hours at 37° C. After the incubations, the plates were washed using 0.01% PBST for a total of five washes. After the final wash, the indicated biotinylated anti-FAM19A5 antibodies (“detection antibody”) (diluted to lug/mL in 5% PBSAT) were added to the relevant wells (100 μL volume) and the plates were incubated for an additional 1 hour at 37° C. Afterwards, the plates were washed again with 0.01% PBST (five total washes). Next, 100 μL of the diluted (1/2000 in 5% PBSAT) Streptavidin-HRP (1 mg/mL, Sigma, USA) was added to the wells, and the plates were incubated for 30 minutes at room temperature. The plates were then washed and treated with 100 μL of the TMB substrate ([…], Thermo Fisher Scientific). After an additional 30-minute incubation at room temperature, the color change reaction was induced by the addition of the TMB substrate. This reaction was stopped using 50 μL of sulfuric acid (2N H2SO4), and the extent of color change was detected via absorption at 450 nm with reference wavelength at 620 nm using a 96 well microplate reader (Molecular Device).

[3] = target: T2, FAM19A5 mutants M1 to M8 (Homo sapiens, UniProt Q7Z5A7, D109K/G107E/I112P/L110T/N113D/R114N); test: Epitope mapping ELISA with FAM19A5 mutants M1-M8
T2 construct: made in house; host or cells: phage display with helper phage
Description: as §1, §2

T1 sequence (Q7Z5A7 with tags, fused parts or gaps isoform Q7Z5A7-2, change not shown): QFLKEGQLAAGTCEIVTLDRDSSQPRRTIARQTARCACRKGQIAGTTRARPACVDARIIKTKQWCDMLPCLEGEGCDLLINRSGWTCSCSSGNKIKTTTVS
Sequence of FAM19A5 antigen (Q7Z5A7 44-132): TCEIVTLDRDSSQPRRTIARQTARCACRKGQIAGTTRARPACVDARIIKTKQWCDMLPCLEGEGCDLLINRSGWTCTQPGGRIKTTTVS
T2 sequence (Q7Z5A7 26-125 isoform Q7Z5A7-2 G100E/D102K/L103T/I105P/N106D/R107N): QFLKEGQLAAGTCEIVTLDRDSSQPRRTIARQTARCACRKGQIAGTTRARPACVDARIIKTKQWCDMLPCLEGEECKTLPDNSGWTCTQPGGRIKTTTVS

Row | Molecule | binding to FAM19A5 mutant M8 [1] | cross-competition with the other anti-FAM19A5 antibodies [2] | binding to FAM19A5 mutant M7 [3]
1 | P1-A08: anti-FAM19A5 antibody; VH SEQ ID NO: 160, VL SEQ ID NO: 171 (antibody, V domains shown, P1-A08 VH; P1-A08 VL) VH: QSLEESGGRLVTPGTPLTLTCTASGFSLSTYYMSWVRQAPGKGLEWIGIVYPSGTTYYANWAKGRFTISTASTTVDLMITSPTTEDTATYFCARGDSFGYGLWGPGTLVTVSS VL: ELVLTQSPSVQVNLGQTVSLTCTADTLSRSYASWYQQKPGQAPVLLIYRDTSRPSGVPDRFSGSSSGNTATLTISGAQAGDEADYYCATSDGSGSNYQYVFGGGTQLTVT | failed to bind |  | 
2 | P2-A03: anti-FAM19A5 antibody; VH SEQ ID NO: 163, VL SEQ ID NO: 174 (antibody, V domains shown, P2-A03 VH; P2-A03 VL) VH: QSVEESGGRLVTPGTPLTLTCTVSGFSLNNYDMSWVRQAPGKGLEYIGFMDTDGSAYYATWAKGRFTISRTSTTVDLKMTSPTTEDTATYFCARRGSSYYGGIDIWGPGTPVTVSL VL: ELDLTQTPASVSEPVGGTVTIKCQASQSIGGNLAWYQQKPGQPPKLLIYRASTLASGVPSRFKGSGSGTDFTLTISDLECADAATYYCQSPAYDPAAYVGNAFGGGTELEIL | failed to bind | cross-competed with one another | 
3 | P2-F07: anti-FAM19A5 antibody; VH SEQ ID NO: 164, VL SEQ ID NO: 175 (antibody, V domains shown, P2-F07 VH; P2-F07 VL) VH: QSLEESGGRLVTPGTPLTLTCTASGFSLSSYYMNWVRQAPGKGLEWIGIIYPSGTTYYAGWAKGRFTISKTSTTVDLKITSPTSEDTATYFCARTVSGYFDIWGPGTLVTVSL VL: ELDLTQTPPSLSASVGGTVTINCLASEDIYSALAWYQQKPGKPPTLLISGTSNLESGVPPRFSGSGSGTDYTLTIGGVQAEDAATYFCQGYSSYPLTFGAGTNVEIK | failed to bind |  | 
4 | 15A9: anti-FAM19A5 antibody; VH SEQ ID NO: 158, VL SEQ ID NO: 169 (antibody, V domains shown, 15A9 VH; 15A9 VL) VH: QVQLQESGPGLVKPSETLSLTCTVSGGSISSYYWSWIRQPPGKGLEWIGYIYPSGSTNYNPSLKSRVTISVDTSKNQFSLNLKSVTAVDTAVYYCARVNPFGYYYAMDVWGQGTTVTVSS VL: DIQMTQSPSSLSASVGDRITISCRASQSISTSLNWYQQTPGKAPRLLIYGASTLQSGVPSRFSGGGSGTDFSLTITSLQPEDFATYYCQESASIPRTFGQGTKLDIK | failed to bind |  | reduced binding
5 | P2-A01: anti-FAM19A5 antibody; VH SEQ ID NO: 162, VL SEQ ID NO: 173 (antibody, V domains shown, P2-A01 VH; P2-A01 VL) VH: QEQLVESGGRLVTPGTPLTLSCTASGFFLSGYYMSWVRQAPGKGLEWIGIIYPSGSTDYASWAKGRFTISKTSTTVDLKITTPTTEDTATYFCARVAGYVGYGYETFFDIWGPGTLVTVSL VL: ELVMTQTPPSLSASVGETVRIRCLASEDIYSGISWYQQKPGKPPTLLIYGASNLESGVPPRFSGSGSGSDYTLTIGGVQAEDAATYYCLGGVTYSSTGTHLTFGAGTNVEIK | failed to bind |  | 
6 | P2-F11: anti-FAM19A5 antibody; VH SEQ ID NO: 165, VL SEQ ID NO: 176 (antibody, V domains shown, P2-F11 VH; P2-F11 VL) VH: QEQLVESGGRLVTPGTTLTLTCTVSGFSLSSYGVSWVRQAPGKGLEWIGYIANNYNPHYASWAKGRFTISKTSSTTVDLKMTSLTTEDTATYFCARDNYGMDPWGPGTLVTVSS VL: ELDLTQTPSSVSAAVGGTVTINCQASQSVYNNKNLAWYQQKPGQPPKLLIYAASTLASGVSSRFKGSGSGTQFTLTISDVQCDDAATYYCQGEFSCSSADCNAFGGGTELEIL | failed to bind | cross-competed with one another | 
7 | P1-F02: anti-FAM19A5 antibody; VH SEQ ID NO: 161, VL SEQ ID NO: 172 (antibody, V domains shown, P1-F02 VH; P1-F02 VL) VH: QSLEESGGRLVTPGTPLTLTCTASGFSLSNYYMGWVRQAPGEGLEWIGIIYASGSTYYASWAKGRFTISKTSTTVDLKMTSLTTEDTATYFCARIDIGVGDYGWAYDRLDLWGQGTLVTVSS VL: ELDMTQTPPSLSASVGETVRIRCLASEDIYSGISWYQQKPGKPPTLLIYGASNLESGVPPRFSGSGSGTDYTLTIGGVQAEDAATYYCLGGYSYSSITFGAGTNVEIK | failed to bind |  | 
8 | 13F7: anti-FAM19A5 antibody; VH SEQ ID NO: 157, VL SEQ ID NO: 168 (antibody, V domains shown, 13F7 VH; 13F7 VL) VH: QVQLQEWGAGLLKPSETLSLTCAINAESFNGYSWTWIRQTPGKGLEWIGEISHFGSANYNPSLKSRATISADKSKNQFSLKLTSVTAVDTAVYYCARALRGTYSRFYYGMDVWGQGTTVTVSS VL: DIVMTQTPLSLPVAPGEPASISCRSSQSLLHSNGYNYLDWYVQKPGQPPQLLIYLGSNRASGVPDRFSGSGSGTDFTLKISRVEAEDVGVYYCMQARQTPLTFGGGTKVEIK | failed to bind |  | reduced binding
